Data on five molecules can be found in US20050261196A1 (UNIVERSITY OF CHICAGO, published 2005).

Where no end group is shown, it is not given here. [ ]: non-standard residue; d: D form.

For data set [1], the system named is T1, D-PIK(int.).
T1 sequence: RKKYKYRRK

The subject of data set [2] is T2, D-PIK.
T2 sequence: RKKYKYRRK

Data set [3] concerns T3, D-PIK(reversed).
T3 sequence: KRRYKYKKR

Data set [4] deals with myosin light chain kinase (215 kDa MLCK expressed by Caco-2 cells) (UniProt Q15746 1-1914, limits assumed). The data set can be described thus: cell-based or functional assay.
Chain of myosin light chain kinase (215 kDa MLCK expressed by Caco-2 cells) (Q15746 whole entry): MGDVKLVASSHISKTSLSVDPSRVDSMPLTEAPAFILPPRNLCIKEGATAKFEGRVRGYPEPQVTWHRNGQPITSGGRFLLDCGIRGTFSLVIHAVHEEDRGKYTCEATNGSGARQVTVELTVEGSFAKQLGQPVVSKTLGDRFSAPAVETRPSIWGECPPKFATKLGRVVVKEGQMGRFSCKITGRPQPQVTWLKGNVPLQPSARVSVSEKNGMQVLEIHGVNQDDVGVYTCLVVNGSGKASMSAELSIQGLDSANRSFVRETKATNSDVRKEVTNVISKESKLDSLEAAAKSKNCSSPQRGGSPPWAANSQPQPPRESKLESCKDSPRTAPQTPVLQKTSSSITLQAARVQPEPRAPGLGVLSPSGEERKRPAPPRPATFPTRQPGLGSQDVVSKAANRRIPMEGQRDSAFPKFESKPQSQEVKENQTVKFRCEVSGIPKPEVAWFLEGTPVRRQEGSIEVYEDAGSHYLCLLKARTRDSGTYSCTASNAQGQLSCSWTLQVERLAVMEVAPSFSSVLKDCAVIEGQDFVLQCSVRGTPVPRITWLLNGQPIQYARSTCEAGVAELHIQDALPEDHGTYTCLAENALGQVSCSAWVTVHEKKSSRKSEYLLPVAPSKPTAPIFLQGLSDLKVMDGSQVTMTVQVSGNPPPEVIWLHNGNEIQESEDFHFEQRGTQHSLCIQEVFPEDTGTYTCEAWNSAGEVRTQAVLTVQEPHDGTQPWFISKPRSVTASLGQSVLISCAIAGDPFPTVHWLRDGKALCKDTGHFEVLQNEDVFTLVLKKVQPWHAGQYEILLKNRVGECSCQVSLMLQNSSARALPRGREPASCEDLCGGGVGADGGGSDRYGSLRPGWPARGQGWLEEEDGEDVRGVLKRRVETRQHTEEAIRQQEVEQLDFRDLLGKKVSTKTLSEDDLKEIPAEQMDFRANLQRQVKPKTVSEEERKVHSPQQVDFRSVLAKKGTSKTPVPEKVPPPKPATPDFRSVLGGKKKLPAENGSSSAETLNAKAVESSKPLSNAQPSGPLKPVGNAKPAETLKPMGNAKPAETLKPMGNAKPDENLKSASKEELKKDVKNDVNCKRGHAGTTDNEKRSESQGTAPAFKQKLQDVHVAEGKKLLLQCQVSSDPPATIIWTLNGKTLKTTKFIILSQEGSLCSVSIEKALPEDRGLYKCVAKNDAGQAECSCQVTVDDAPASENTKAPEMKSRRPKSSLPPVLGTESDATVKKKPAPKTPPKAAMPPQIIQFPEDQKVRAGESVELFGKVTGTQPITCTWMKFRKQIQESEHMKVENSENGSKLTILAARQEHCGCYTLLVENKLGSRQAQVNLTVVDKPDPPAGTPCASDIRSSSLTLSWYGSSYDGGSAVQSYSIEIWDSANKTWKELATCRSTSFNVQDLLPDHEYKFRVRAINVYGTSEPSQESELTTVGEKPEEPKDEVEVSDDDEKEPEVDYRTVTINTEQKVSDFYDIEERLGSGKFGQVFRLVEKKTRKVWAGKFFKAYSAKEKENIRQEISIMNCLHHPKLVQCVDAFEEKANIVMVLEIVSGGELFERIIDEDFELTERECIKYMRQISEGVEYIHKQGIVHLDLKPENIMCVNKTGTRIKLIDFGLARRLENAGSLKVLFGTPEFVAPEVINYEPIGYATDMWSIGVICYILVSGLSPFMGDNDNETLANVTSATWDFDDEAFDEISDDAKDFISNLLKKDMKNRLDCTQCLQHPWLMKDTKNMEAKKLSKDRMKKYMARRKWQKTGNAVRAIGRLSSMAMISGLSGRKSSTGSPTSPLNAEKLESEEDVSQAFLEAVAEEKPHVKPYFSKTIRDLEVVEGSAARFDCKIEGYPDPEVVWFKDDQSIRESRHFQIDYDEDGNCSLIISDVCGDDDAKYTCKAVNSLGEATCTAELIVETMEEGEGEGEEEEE

On to “Calcium/calmodulin dependent protein kinase II (CaMPKII)”, for which the “CaMPKII activity (phosphorylation of plate-bound pseudo-substrate peptide, anti-phosphoserine ELISA)” value in data set [1], in data set [2] and in data set [3] was “Neither D-PIK nor D-PIK(reversed) nor D-PIK(int) demonstrated striking inhibitory effects toward PKA or CaMPKII at concentrations up to 5 mM” in each case.
As to RKK[dY][dK][dY]RRK-NH2 [D-PIK(int.)], the “Δ TER (elevation in transepithelial resistance of Caco-2 monolayers, 500 µM peptide, one hour)” value (“Δ TER” below) in data set [4] was 47%.
On to [dK][dR][dR][dY][dK][dY][dK][dK][dR]-NH2 [D-PIK(reversed)], for which the “Δ TER” value in data set [4] stood at 50%.
Turning to RKKYKYRRK-NH2 (not fully specified; printed as Arg-Lys-Lys-Tyr-Lys-Tyr-Arg-Arg-Lys) [PIK (SEQ ID NO: 12)], in data set [4], the “Δ TER” value is 45%.
With [dR][dK][dK][dY][dK][dY][dR][dR][dK]-NH2 [D-PIK], the “Δ TER” value in data set [4] was 41%.
